For 5 molecules, OD (ELISA) results are on record in patent CN113185608A.

Substitutions are numbered along the chain they refer to.

Sequences and labels used below:
B1: 1H17+3λ8 (antibody, V domains shown)
VH: EVQLLESGGGLVQPGGSLRLSCAASGFTFSTYWMNWVRQAPGKGLEWVANRDGSQKYYVDSVEGRFTISRDNAKSSLYLQMNSLRADDTAVYYCMSGYDSGHWGQGSTVTVSS
VL: ANFMLTQEPSLTVSPGGTVTLTCGSSTGAVTSGLYAYWFQQKPGQVPRTLIYNISNKQSWTPARFSGSLLGGKAALTLSGPEDEADYYCLLSYSRTRVFGGGTKLTVLG
B2: 1H3+3λ1 (antibody, V domains shown)
VH: VHSQVQLVESGGGVVQPGRSLRLSCAASGFTFSSYAMHWVRQAPGKGLEWVAVISYDGNKYYADSVKGRFTISRDNSKNTLYLQMNSLRDEDTAVYYCARAPDCSGGSCSTEYFQHWGQGTLVTVSS
VL: SWAQSVLTQEPSLTVSPGGTVTLTCGSSTGAVTSGLYAYWFQQKPGQVPRTLIYNISNKQSWTPARFSGSLLGGKAALTLSGAQPEDEADYYCLLSYSRTRVFGTKLTVLGQPKAAPSVTLFP
B3: 1H18+3λ10 (antibody, V domains shown)
VH: EVQLVQSGGGLVQPGGSLRLSCAASGFTFSTYWMNWVRLSQTPGKGLEWVANINRDGSQKYYVDSVEGRFTISRLSDNAKSSLYLQMNSLRADDTAVYYCMSGYDSGHWGQGSTVTVSS
VL: SQTVVTQEPSLTVSPGGTVTLTCGSSTGAVTSGLYAQQKPGQVPRTLIYNISNKQSWTPARFSGSLLGGKAALTLSGAQPEDEADYYCLLSYSRTRVFGGGTKLTVLG
B4: 1H10+3λ5 (antibody, V domains shown)
VH: EVQLVQSGGGLVQPGGSLRLSCAASVEAFSTYWMNWVRQAPGKGLEWVANINRDGSQKYYVDSVEGRFTISRDNAKSSLYLQMNSLRADDTAVYYCMSGYDSGHWGQGSLVTVSS
VL: SQAVVTQEPSLTVSPGGTVTLTCGSSTGAVTSGLYAYWFQQKPGQVPRTLSTGAVIYNISNKQSWTPARFSGSLLGGKAALTLSGAQPEDEADYYCLLSYSRTRVFGGGTKLTVLG
B5: 1H16+3λ7 (antibody, V domains shown)
VH: B4 VH with Q6E, V26G, E27F, A28T
VL: SQAVVTQEPSLTVSPGGTVTLTCGSSTGAVTSGLYAYWTVTFQQKPGQVPRTLIYNISNKQSWTPARFSGSLLGGKAALTLSGAQPEDEADYYCLLSYSRTRVFGGGTKLTVLG

This assay deals with 狂犬病毒糖蛋白(Glycoprotein，GP) (Rabies virus (RABV)). As to the kind of experiment: ELISA of HEK293T transfection supernatant. (In general: In an ELISA, binding on a coated surface is turned into a signal by an enzyme label.)
Consider B1, for which the OD (ELISA) is over 1.1 OD.

B2 gave an OD (ELISA) of over 1.1 OD.

For the molecule B3, the OD (ELISA) was over 1.1 OD.

B4 came in with an OD (ELISA) of over 1.1 OD.

As for B5, the OD (ELISA) is over 1.1 OD.
